From paper PMC12199414, “A Self‐Assembling LYTAC Mediates CTGF Degradation and Remodels Inflammatory Tumor Microenvironment for Triple‐Negative Breast Cancer Therapy” (Advanced Science, 2025)

Tests used:
[1] = Dynamic light scattering: size, PDI, zeta potential; type: physicochemical; settings: DLS, 500 µg/mL in PBS
Description: A solution of 1‐Dodecanethiol (0.5 mmol) and 2,2′‐Dithiodipyridine (0.6 mmol) in 10 mL MeOH was vigorously stirred for 3 h at room temperature. The reaction mixture was diluted with petroleum ether/ethyl acetate (50:1, v/v). The purified products 2‐(dodecyldisulfaneyl)pyridine were characterized by MS. CL8‐M6P3 (1.4 mg, 0.56 µmol, 1 eq.) and 2‐(dodecyldisulfaneyl)pyridine (261.7 µg, 0.84 µmol, 1.5 eq.) dissolved in 1 mL DMF/ddH2O (1/1, v:v) was vigorously stirred for 16 h at room temperature. The products were diluted with ddH2O. The aqueous layer was extracted with ethyl acetate three times, and filtered and concentrated under reduced pressure. For particle size measurement, NanoCLY was prepared at a final concentration of 500 µg/mL in PBS, sonicated for 30 min, and used for particle size analyzer (Malvern Panalytical, UK), transmission electron microscope (TEM) analysis (JEOL, Japan) and Nanosight NS300 (Malvern Panalytical, UK). 2‐(dodecyldisulfaneyl)pyridine, ESI‐MS calcd for C17H29NS2 [M + H]^+ 312.55, found 312.20. NanoCLY, ESI‐MS calcd for C107H176N27O47P3S2 [M + H]^+ 2750.77, found 1375.50.

red blood cells = experiment: Hemolysis assay; type: cell-based, mice; settings: mouse erythrocytes, 0-30 × 10^−6 M, 1 h, 37 °C, absorbance 570 nm
Description: The hemolytic activities of CL8, CL8‐M6P3, and NanoCLY were determined by monitoring hemoglobin release from red blood cells. Fresh erythrocytes were obtained from the whole blood of mice by centrifugation (1000 × g for 30 min at 4 °C), and washed three times with cold 0.9% NaCl. The erythrocytes were dispensed into 96‐well plates, incubated with CL8, CL8‐M6P3 and NanoCLY at specified concentrations (0, 0.3, 1, 3, 10, and 30 × 10^−6 M) for 1 h at 37 °C, centrifuged at 1000 × g for 10 min, the supernatant samples were collected, and the absorbance at 570 nm was measured by microplate reader Cytation 5 (Biotek, USA). The negative control group was defined as the absorbance obtained in 1× PBS (A PBS), and 100% hemolysis in 0.1%Triton X‐100 (v/v) (A Triton). The hemolysis percentage was calculated as: (A peptide − A PBS)/(ATriton − A PBS) × 100%.

C12-CPSAAHYL-PEG3-[Pra(M6P)βAla]3-NH2 [NanoCLY, CL8-M6P3 joined to a lauryl chain via disulfide; self-assembling GSH-responsive LYTAC nanoparticle]
polymer dispersity index (PDI) [1]: 0.301 ± 0.059
hydrodynamic diameter (size) ([1]; sonicated 30 min): 118.0 ± 9.38 nm
hemolysis safety (red blood cells): good hemolysis safety
